# Measurements reported in paper PMC8352894, “A KLK4 proteinase substrate capture approach to antagonize PAR1” (Scientific Reports, 2021).
# Primed or numbered codes have the meaning given here. The star is where a group is joined. Biotin = O=C1N[C@H]2[C@H](CS[C@H]2CCCCC(=O)*)N1; FITC′ = not defined here
# Experiments:
# KLK4_(S207A,L185D) = target: T1, KLK4_(S207A,L185D) (human, UniProt Q9Y5K2 31-254, S207A | L185D); experiment: SPR; ProteOn XPR36; biotinylated PAR1 peptide immobilised on an NLC chip via NeutrAvidin-biotin (2600 RU); KLK4 variants flowed over in PBST at 30 µL/min for 818 s, dissociation 30 min (166 min for KLK4 S207A,L185D); 25 °C; empty channel subtracted; 1:1 Langmuir kinetic model; details: both partners purified
# T1 construct: Kallikrein-related peptidase 4 (KLK4), human, UniProtKB Q9Y5K2; peptidase domain left after thermolysin removed the pro-peptide S27CSQ30 (begins at residue 31); L185D chosen by in-silico saturation mutagenesis; also called KLK4_(L185D,S207A); KLK_(S207,L185D); not shown: FLAG, N-terminal, cleaved
# KLK4_(S207A) = target: T2, KLK4_(S207A) (human, UniProt Q9Y5K2 31-254, S207A); experiment: as above; details: both partners purified
# T2 construct: Kallikrein-related peptidase 4 (KLK4), human, UniProtKB Q9Y5K2; peptidase domain left after thermolysin removed the pro-peptide S27CSQ30 (begins at residue 31); S207 is Ser195 in chymotrypsin numbering; also called KLK_(S207); not shown: FLAG, N-terminal, cleaved
# T2 sequence (Q9Y5K2 31-254 S207A): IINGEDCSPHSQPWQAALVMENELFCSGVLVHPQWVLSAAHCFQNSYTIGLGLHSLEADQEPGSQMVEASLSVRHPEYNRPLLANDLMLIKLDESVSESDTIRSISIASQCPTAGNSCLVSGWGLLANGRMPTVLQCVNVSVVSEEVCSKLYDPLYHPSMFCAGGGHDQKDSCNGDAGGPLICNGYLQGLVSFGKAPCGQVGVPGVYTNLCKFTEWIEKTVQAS
# T1 sequence (Q9Y5K2 31-254 L185D/S207A): as the sequence (Q9Y5K2 31-254 S207A) above, with L155D counted along it
binder,measurement,setting,value
"Biotin-SKATNATLDPRSFLLRNPNDKYEPFWED-{FITC′} (also called PAR1 extracellular peptide; source: synthetic peptide, bought: Peptron, Daejeon, Korea (>95%)) [biotinylated PAR1 peptide (biotin-31SKATNATLDPRSFLLRNPNDKYEPFWED58-FITC)]",Kd,"KLK4_(S207A,L185D)",55.5 nM
same,koff,"KLK4_(S207A,L185D)",3.17e-06 s⁻¹
same,kon,"KLK4_(S207A,L185D)",57 M⁻¹ s⁻¹
same,Kd,KLK4_(S207A),1120 nM
same,koff,KLK4_(S207A),0.000391 s⁻¹
same,kon,KLK4_(S207A),349 M⁻¹ s⁻¹
